Laboratory results published in patent publication US20240410900A1.

Tests used:
[1] = molecular target: non-targeted IgG-IL2 (interleukin-2 fused to the C-terminus of a heavy chain of a germline antibody, which is not binding to a target); experiment: bridging ELISA, drug-Bi and drug-Dig, human pooled serum, binder 16 ng/mL assay / 312.5 ng/mL matrix
[2] = molecular target: TCB (T-cell bispecific format) drug antibody; experiment: as above
[3] = molecular target: targeted IgG-IL2 (interleukin-2 fused to the C-terminus of a heavy chain of an antibody specifically binding to a therapeutic target); experiment: as above
[4] = molecular target: drug antibody (capture and tracer of the bridging immunoassay of FIGS. 2, 7 and 8; not named); experiment: bridging immunoassay, drug antibody as capture and tracer, binder at 80 ng/ml
[5] = molecular target: non-targeted IgG-IL2 (interleukin-2 fused to the C-terminus of a heavy chain of a germline antibody, which is not binding to a target); experiment: bridging ELISA, IgG-IL2-Bi and -Dig, binder 500 ng/mL assay / 10000 ng/mL matrix
[6] = molecular target: non-targeted IgG-IL2 (interleukin-2 fused to the C-terminus of a heavy chain of a germline antibody, which is not binding to a target); experiment: bridging ELISA, IgG-IL2-Bi and -Dig, binder 2.0 ng/mL assay / 39 ng/mL matrix
[7] = molecular target: non-targeted IgG-IL2 (interleukin-2 fused to the C-terminus of a heavy chain of a germline antibody, which is not binding to a target); experiment: bridging ELISA, IgG-IL2-Bi and -Dig, binder 0.2 ng/mL assay / 4.9 ng/mL matrix
[8] = molecular target: non-targeted IgG-IL2 (interleukin-2 fused to the C-terminus of a heavy chain of a germline antibody, which is not binding to a target); experiment: bridging ELISA, drug-Bi and drug-Dig, human pooled serum, binder 7.8 ng/mL assay / 156 ng/mL matrix
[9] = molecular target: TCB (T-cell bispecific format) drug antibody; experiment: as above
[10] = molecular target: targeted IgG-IL2 (interleukin-2 fused to the C-terminus of a heavy chain of an antibody specifically binding to a therapeutic target); experiment: as above
[11] = molecular target: non-targeted IgG-IL2 (interleukin-2 fused to the C-terminus of a heavy chain of a germline antibody, which is not binding to a target); experiment: bridging ELISA, IgG-IL2-Bi and -Dig, binder 63 ng/mL assay / 1250 ng/mL matrix
[12] = molecular target: non-targeted IgG-IL2 (interleukin-2 fused to the C-terminus of a heavy chain of a germline antibody, which is not binding to a target); experiment: bridging ELISA, IgG-IL2-Bi and -Dig, binder 3.9 ng/mL assay / 78 ng/mL matrix
[13] = molecular target: non-targeted IgG-IL2 (interleukin-2 fused to the C-terminus of a heavy chain of a germline antibody, which is not binding to a target); experiment: bridging ELISA, IgG-IL2-Bi and -Dig, binder 0.03 ng/mL assay / 0.6 ng/mL matrix
[14] = molecular target: non-targeted IgG-IL2 (interleukin-2 fused to the C-terminus of a heavy chain of a germline antibody, which is not binding to a target); experiment: bridging ELISA, drug-Bi and drug-Dig, human pooled serum, binder 0.00 ng/mL (blank)
[15] = molecular target: TCB (T-cell bispecific format) drug antibody; experiment: as above
[16] = molecular target: targeted IgG-IL2 (interleukin-2 fused to the C-terminus of a heavy chain of an antibody specifically binding to a therapeutic target); experiment: as above
[17] = molecular target: non-targeted IgG-IL2 (interleukin-2 fused to the C-terminus of a heavy chain of a germline antibody, which is not binding to a target); experiment: bridging ELISA, IgG-IL2-Bi and -Dig, binder 125 ng/mL assay / 2500 ng/mL matrix
[18] = molecular target: non-targeted IgG-IL2 (interleukin-2 fused to the C-terminus of a heavy chain of a germline antibody, which is not binding to a target); experiment: bridging ELISA, IgG-IL2-Bi and -Dig, binder 0.5 ng/mL assay / 10 ng/mL matrix
[19] = molecular target: non-targeted IgG-IL2 (interleukin-2 fused to the C-terminus of a heavy chain of a germline antibody, which is not binding to a target); experiment: bridging ELISA, drug-Bi and drug-Dig, human pooled serum, binder 31 ng/mL assay / 625 ng/mL matrix
[20] = molecular target: TCB (T-cell bispecific format) drug antibody; experiment: as above
[21] = molecular target: targeted IgG-IL2 (interleukin-2 fused to the C-terminus of a heavy chain of an antibody specifically binding to a therapeutic target); experiment: as above
[22] = molecular target: non-targeted IgG-IL2 (interleukin-2 fused to the C-terminus of a heavy chain of a germline antibody, which is not binding to a target); experiment: bridging ELISA, IgG-IL2-Bi and -Dig, binder 31 ng/mL assay / 625 ng/mL matrix
[23] = molecular target: non-targeted IgG-IL2 (interleukin-2 fused to the C-terminus of a heavy chain of a germline antibody, which is not binding to a target); experiment: bridging ELISA, drug-Bi and drug-Dig, human pooled serum, binder 125 ng/mL assay / 2500 ng/mL matrix
[24] = molecular target: non-targeted IgG-IL2 (interleukin-2 fused to the C-terminus of a heavy chain of a germline antibody, which is not binding to a target); experiment: bridging ELISA, drug-Bi and drug-Dig, human pooled serum, binder 2.0 ng/mL assay / 39 ng/mL matrix
[25] = molecular target: TCB (T-cell bispecific format) drug antibody; experiment: as above
[26] = molecular target: targeted IgG-IL2 (interleukin-2 fused to the C-terminus of a heavy chain of an antibody specifically binding to a therapeutic target); experiment: as above

B1: multivalent anti-PG antibody derived from clone 1.7.24 (mixed Pool 2, 3, 4) (antibody, V domains shown)
VH: EVKLLESGGGLVQPGGSLKLSCAASGFDFSRYWMNWVRQAPGKGLEWIGEITPDSSTINYTPSLKDKFIISRDNAKNTLYLQMIKVRSEDTALYYCVRPYDYGAWFASWGQGTLVTVSA
VL: QAVVTQESALTTSPGETVTLTCRSSTGAVTTSNYANWVQEKPDHLFTGLIGGTNKRAPGVPARFSGSLIGDKAALTITGAQTEDEAIYFCALWYSNHWVFGGGTKLTVL
modifications: lysine amines derivatised with SATP or MHS and cross-linked (sites not given)
- signal [AU] [1]: 0.23 AU
- signal [AU] [2]: 1.19 AU
- signal [AU] [3]: 0.894 AU
- signal-to-noise ratio (S/N) [4]: 4.5
- signal [AU] [5]: 3.09 AU
- signal [AU] [6]: 0.165 AU
- signal [AU] [7]: 0.0645 AU
- signal [AU] [8]: 0.137 AU
- signal [AU] [9]: 0.654 AU
- signal [AU] [10]: 0.475 AU
- signal [AU] [11]: 2.85 AU
- signal [AU] [12]: 0.286 AU
- signal [AU] [13]: 0.0525 AU
- signal [AU] [14]: 0.041 AU
- signal [AU] [15]: 0.0425 AU
- signal [AU] [16]: 0.0395 AU
- signal [AU] [17]: 3.08 AU
- signal [AU] [18]: 0.0825 AU
- signal [AU] [19]: 0.408 AU
- signal [AU] [20]: 2.09 AU
- signal [AU] [21]: 1.65 AU
- signal [AU] [22]: 1.89 AU
- signal [AU] [23]: 1.4 AU
- signal [AU] [24]: 0.0615 AU
- signal [AU] [25]: 0.195 AU
- signal [AU] [26]: 0.148 AU
